Positions count from the first letter of the chain named.
B1: bb10 (DBDpp clone from the F2NNK library), phage-displayed (designed binder)
chain: MGSWAEFKQRLAAIKTRLEALGGSEAELAAFLGEIWAFEMELAAYKGKGNPEVEALGREAAAIRMELQAYRHN
notes: Tested as rescued M13 phage; In the F2NNK library the DBDpp carries an N-terminal FLAG tag and is fused at its C-terminus to M13 pIII (pComb phagemid); also called the 89 clones
B2: DBDpp of SEQ ID NO: 37, phage-displayed (designed binder)
chain: MGSWLWFKIFLAEIKYFLEALGGSEAELAAFDFEIHAFHVELFAYKGKGNPEVEVLREVAAEIRWDLQAYRHN
B3: DBDpp of SEQ ID NO: 45, phage-displayed (designed binder)
chain: MGSWVVFKVDLATIKYILEALGGSEAELAEFEGEIAGFEYSLQFYKGKGNPEVEALRKEAAAIRDELQAYRHN
notes: F1 library
B4: DBDpp of SEQ ID NO: 30, phage-displayed (designed binder)
chain: MGSWHYFKDHLAEIKGLLEALGGSEAELAHFEMAIADFEHNLQYYKGKGNPEVEALRKEAAAIRDELQAYRHN
notes: F1 library; rescued M13 phage clone, DBDpp fused to pIII
B5: DBDpp of SEQ ID NO: 31, phage-displayed (designed binder)
chain: B4 chain with D9G, G16N, L17H, M33R, D37A, H40R, N41S, Y44W
notes: as for B4
B6: DBDpp of SEQ ID NO: 32, phage-displayed (designed binder)
chain: B4 chain with H5I, D9E, E13Y, G16K, L17E, M33S, D37V, H40S, N41T
notes: as for B4
B7: DBDpp of SEQ ID NO: 33, phage-displayed (designed binder)
chain: B4 chain with H5T, D9E, G16Y, L17M, M33V, H40K, N41M
notes: as for B4
B8: DBDpp of SEQ ID NO: 34, phage-displayed (designed binder)
chain: B4 chain with H5W, Y6L, G16T, L17A, D37A, H40K, N41Q
notes: as for B4
B9: DBDpp of SEQ ID NO: 28, phage-displayed (designed binder)
chain: MGSWVYFKEHLAWIKTELEALGGSEAELAHFEHSIADFEMSLQFYKGKGNPEVEALRKEAAAIRDELQAYRHN
notes: F1 library
B10: DBDpp of SEQ ID NO: 29, phage-displayed (designed binder)
chain: MGSWFYFKQHLAWIKSYLEALGGSEAELAHFERAIAAFEQHLQMYKGKGNPEVEALRKEAAAIRDELQAYRHN
notes: as for B4
B11: DBDpp of SEQ ID NO: 48, phage-displayed (designed binder)
chain: MGSWYAFKDYLADIKGWLEALGGSEAELAFFEIFIARFELELQAYKGKGNPEVEALRKEAAAIRDELQAYRHN
notes: as for B4
B12: DBDpp of SEQ ID NO: 47, phage-displayed (designed binder)
chain: MGSWVMFKWLLADIKSHLEALGGSEAELAFFEGFIAAFETHLQVYKGKGNPEVEALRKEAAAIRDELQAYRHN
notes: as for B4
B13: DBDpp of SEQ ID NO: 46, phage-displayed (designed binder)
chain: MGSWTIFKEWLAFIKTDLEALGGSEAELAFFEGWIASFEMELQKYKGKGNPEVEALRKEAAAIRDELQAYRHN
notes: as for B4
B14: DBDpp of SEQ ID NO: 40, phage-displayed (designed binder)
chain: MGSWYEFQNRLHAIHERLNALGGSEAELAAFEKEIAAFESELQAYKGKGNPEVELLRDDAAFIRHFLQAYRHN
notes: F3 library; rescued M13 phage clone, DBDpp fused to pIII
B15: DBDpp of SEQ ID NO: 44, phage-displayed (designed binder)
chain: B14 chain with Y5F, Q8E, H15V, E16H, N19G, L55T, D58A, F66Y
notes: as for B14
B16: DBDpp of SEQ ID NO: 41, phage-displayed (designed binder)
chain: B14 chain with Y5F, N9D, H12T, H15N, N19S, L55T, D58S, H65R
notes: as for B14
B17: DBDpp of SEQ ID NO: 39, phage-displayed (designed binder)
chain: B14 chain with Y5Q, Q8D, N9D, H12N, H15K, E16A, N19Q, L55D, H65R
notes: as for B14
B18: DBDpp of SEQ ID NO: 42, phage-displayed (designed binder)
chain: B14 chain with Q8E, N9S, H12D, N19H, L55N, D58G
notes: as for B14
B19: DBDpp of SEQ ID NO: 38, phage-displayed (designed binder)
chain: B14 chain with Y5T, N9S, H12D, E16S, N19R
notes: as for B14
B20: DBDpp of SEQ ID NO: 43, phage-displayed (designed binder)
chain: B14 chain with Q8N, N9H, H12D, H15S, E16K, L55E, D58G
notes: as for B14
B21: DBDpp of SEQ ID NO: 36, phage-displayed (designed binder)
chain: MGSWYEFYNRLYAIEIRLYALGGSEAELAAFEKEIAAFESELQAYKGKGNPEVERLRVRAAKIRVILQAYRHN
B22: DBDpp of SEQ ID NO: 35, phage-displayed (designed binder)
chain: MGSWSEFYNRLDAIESRLLALGGSEAELALFEIQIARFEKVLQAYKGKGNPEVEALRGEARAIFAELYAYRHN
B23: DBDpp of SEQ ID NO: 60, phage-displayed (designed binder)
chain: B14 chain with Q8T, N9V, H12E, N19K, L55I, H65R
notes: as for B14
B24: DBDpp of SEQ ID NO: 61, phage-displayed (designed binder)
chain: B14 chain with Q8D, N9D, H12N, E16D, N19Q, L55D, H65R
notes: as for B14

Molecular target: T1, recombinant, biotinylated, Human 4-1BB/TNFRSF9/CD137-Fc (human, UniProt Q07011 24-186, biotinylated (site not stated))
T1 construct: Selection and screening target of the phage ELISA; also called 4-1BB/CD137; not shown: Fc portion
T1 sequence (Q07011 24-186 limits assumed): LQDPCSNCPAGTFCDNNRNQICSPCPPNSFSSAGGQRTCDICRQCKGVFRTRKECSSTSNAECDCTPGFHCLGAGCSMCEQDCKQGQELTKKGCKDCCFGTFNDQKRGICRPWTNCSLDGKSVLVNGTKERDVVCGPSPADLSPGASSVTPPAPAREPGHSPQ
Experiment: phage ELISA of rescued clones on human CD137-Fc
Description: The F2NNK DBD library was used in five rounds of selection against recombinant, biotinylated, Human 4-1BB/TNFRSF9/CD137-Fc.

Row | Binder | fold of ELISA OD over control (IgG Fc) [fold]
1 | B1 | 5.3

Molecular target: purified recombinant KIR-Fc protein
Experiment: phage ELISA; signal on target-Fc over non-specific control (e.g. IgG1-Fc)

Row | Binder | ELISA ratio
2 | B2 | 4.17

Molecular target: T2, purified recombinant TIM3-Fc protein (UniProt Q8TDQ0 22-202, limits assumed)
T2 construct: not shown: Fc portion
Experiment: phage ELISA; signal on target-Fc over non-specific control (e.g. IgG1-Fc); average where several clones
Method: (§1) Selections were also performed using F1, F2, F3, C1 & C2 trinucleotide phosphoramidite libraries. In most cases, libraries were pooled prior to use in selection. By combining equal volumes of the individual libraries, Pool F (libraries F1, F2 and F3) and Pool C (libraries C1 and C2) were generated. These libraries were used in selections for DBDpp binders to 4-1BB/CD137 as well as a larger panel of purified recombinant “target”-Fc proteins, including CD47, CTLA4, DR5, KIR, LAG3, OX40, PD1, PD-L1 and TIM3. (Many of these targets are considered immuno-regulatory factors (Pardoll et al., Nat. Rev. Cancer 12:252-264 (2012)). After incubation of the target with the pools of DBDpp phage libraries, bound phage-target complexes were captured and separated from unbound phage with protein A beads (target proteins were Fc fusions). After three rounds of selection, rescued phage clones were screened by ELISA for binding to the selected target.
(§2) For each target, approximately 90 DBDpp phage clones were screened by ELISA for binding to the target protein and as well as a non-specific control (e.g., IgG1-Fc). […] In some instances, for the ELISA screening plate in which the majority of DBDpp clones were positive, the entire plate was sequenced.

Row | Binder | ELISA ratio
3 | B3 | 5.79

Molecular target: T3, purified recombinant DR5-Fc protein (UniProt O14763-2 56-182, limits assumed)
T3 construct: also called TRAIL-R2; not shown: Fc portion
T3 sequence (O14763 56-182 limits assumed): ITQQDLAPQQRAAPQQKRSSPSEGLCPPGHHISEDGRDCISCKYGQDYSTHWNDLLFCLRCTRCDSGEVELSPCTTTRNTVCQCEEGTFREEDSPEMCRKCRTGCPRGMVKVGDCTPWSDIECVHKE
Experiment: as above
Method: as §1, §2

Row | Binder | ELISA ratio
4 | B4 | 11.4
5 | B5 | 10.8
6 | B6 | 10.7
7 | B7 | 10.3
8 | B8 | 9.75
9 | B9 | 12.1
10 | B10 | 11.8

Molecular target: T4, purified recombinant PD1-Fc protein (UniProt Q15116 25-167, limits assumed)
T4 construct: not shown: Fc portion
T4 sequence (Q15116 25-167 limits assumed): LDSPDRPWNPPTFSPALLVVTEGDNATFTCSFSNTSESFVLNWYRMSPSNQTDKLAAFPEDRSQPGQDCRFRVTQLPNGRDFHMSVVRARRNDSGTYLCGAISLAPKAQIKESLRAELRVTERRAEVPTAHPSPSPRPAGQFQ
Experiment: as above
Method: as §1, §2

Row | Binder | ELISA ratio
11 | B11 | 3.29
12 | B12 | 8.13
13 | B13 | 17.1

Molecular target: T5, purified recombinant PD-L1-Fc protein (UniProt Q9NZQ7 19-238)
T5 construct: also called B7-H1; not shown: Fc portion
T5 sequence (Q9NZQ7 19-238 limits assumed): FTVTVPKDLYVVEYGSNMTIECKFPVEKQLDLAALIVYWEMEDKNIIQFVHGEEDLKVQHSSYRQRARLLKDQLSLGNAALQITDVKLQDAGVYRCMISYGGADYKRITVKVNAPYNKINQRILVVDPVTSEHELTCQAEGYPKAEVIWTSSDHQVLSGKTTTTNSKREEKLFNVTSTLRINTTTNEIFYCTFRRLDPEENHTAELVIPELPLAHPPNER
Experiment: as above
Method: as §1, §2

Row | Binder | ELISA ratio
14 | B14 | 6.34
15 | B15 | 2.76
16 | B16 | 6.01
17 | B17 | 7.41
18 | B18 | 4.88
19 | B19 | 8.68
20 | B20 | 2.98

Molecular target: purified recombinant KIR-Fc protein
Experiment: as above

Row | Binder | ELISA ratio
21 | B21 | 4.24
22 | B22 | 8.4

Molecular target: T5, purified recombinant PD-L1-Fc protein
Experiment: phage ELISA; signal on target-Fc over non-specific control (e.g. IgG1-Fc)
Method: as §1, §2

Row | Binder | ELISA ratio
23 | B23 | 17.3
24 | B24 | 12.2
